In assay [1] the target is Thermus aquaticus RNAP β-subunit β1 domain (Taq β 17–139 –Gly–Gly– 334–395) (Thermus aquaticus) (UniProt Q9KWU7). In words: crystal structure.
Assay [2] concerns the target Tth RNAP-β1 Q99R (Tth RNAP β-subunit residues 10–133), two-hybrid fusion (Thermus thermophilus) (UniProt Q8RQE9). In words: two-hybrid.
The target of assay [3] is Tth RNAP β-subunit residues 10–133 (Tth RNAP-β1), two-hybrid fusion (Thermus thermophilus) (UniProt Q8RQE9). In words: two-hybrid.
The target in assay [4] is Eco RNAP β-subunit residues 19–142 (Eco RNAP-β1), two-hybrid fusion (Escherichia coli) (UniProt P0A8V2). In words: two-hybrid.
In assay [5] the target is T1, Tth RNAP-β1 Q99R (Tth RNAP β-subunit residues 10–133), two-hybrid fusion (Thermus thermophilus, UniProt Q8RQE9 10-133, Q99R).
T1 sequence (looked up): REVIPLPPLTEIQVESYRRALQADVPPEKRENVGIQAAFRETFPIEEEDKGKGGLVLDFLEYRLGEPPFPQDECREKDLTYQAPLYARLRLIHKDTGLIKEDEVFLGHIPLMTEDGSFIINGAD
In words: two-hybrid.

Assay [6] deals with Eco RNAP β-subunit residues 19–142 (Eco RNAP-β1), two-hybrid fusion (Escherichia coli, UniProt P0A8V2 19-142). In words: two-hybrid.

Changes are numbered by the printed parent chain. In names and notes the source's numbering stands.

In general, stoichiometry N refers to a count of units in the complex or per binding partner. In turn, “Thermus thermophilus HB27 TRCF RNAP interacting domain (Tth TRCF–RID, residues 321–387) (domain or fragment)” came in with a stoichiometry N in assay [1] of 1.

Take “Tth TRCF residues 314–444 (Tth TRCF–RID), two-hybrid fusion (domain or fragment)”: in assay [2], the fold defect of the two-hybrid signal against wild-type Tth RNAP-β1 is 2 fold. In assay [3], “Tth TRCF–RID R341L (Tth TRCF residues 314–444), two-hybrid fusion (domain or fragment)” returned a fold defect of the two-hybrid signal against wild-type Tth TRCF–RID of 2 fold. Moreover, in assay [4], the fold change of the two-hybrid signal against wild-type Tth TRCF–RID was 2 fold.

B1: Eco TRCF residues 472–603 (Eco TRCF–RID), two-hybrid fusion (domain or fragment, Escherichia coli, UniProt P30958 472-603, looked up)
chain: RNLAELHIGQPVVHLEHGVGRYAGMTTLEAGGITGEYLMLTYANDAKLYVPVSSLHLISRYAGGAEENAPLHKLGGDAWSRARQKAAEKVRDVAAELLDIYAQRAAKEGFAFKHDREQYQLFCDSFPFETTP
As for B1, in assay [5], the “fold change of the two-hybrid signal against wild-type Tth RNAP-β1” value was around 2 fold.

B2: Eco TRCF–RID L499R (Eco TRCF residues 472–603), two-hybrid fusion (domain or fragment, Escherichia coli, UniProt P30958 472-603, looked up)
chain: B1 chain with L28R
In the case of B2, the “fold defect of the two-hybrid signal against wild-type Eco TRCF–RID” value in assay [6] was around 10 fold.

These data come from PMC3001067 (Nucleic Acids Research, 2010).
